Source: PMC9927937, “Loss of LGR4/GPR48 causes severe neonatal salt wasting due to disrupted WNT signaling altering adrenal zonation” (The Journal of Clinical Investigation, 2023)

What was measured:
[1] = target: HA-tagged LGR4, wild type (human, UniProt Q9BXB1-1 25-951); assay: cell-based or functional assay
[2] = target: HA-tagged LGR4 nt-24 variant (-8 AA) (human, UniProt Q9BXB1-1 25-951, p.(His207_Arg214)); assay: cell-based or functional assay

B1: GFP-tagged RSPO1 (ligand, UniProt Q2MKA7 21-263, looked up)
chain: SRGIKGKRQRRISAEGSQACAKGCELCSEVNGCLKCSPKLFILLERNDIRQVGVCLPSCPPGYFDARNPDMNKCIKCKIEHCEACFSHNFCTKCKEGLYLHKGRCYPACPEGSSAANGTMECSSPAQCEMSEWSPWGPCSKKQQLCGFRRGSEERTRRVLHAPVGDHAACSDTKETRRCTVRRVPCPEGQKRRKGGQGRRENANRNLARKESKEAGAGSRRRKGQQQQQQQGTVGPLTSAGPA
TOP-Flash luciferase reporter of Wnt/β-catenin signaling in HEK293T cells transfected with LGR4, stimulated by RSPO1 (fold over basal) [1]: 6.1 fold | TOP-Flash luciferase reporter of Wnt/β-catenin signaling in HEK293T cells transfected with LGR4, stimulated by RSPO1 (fold over basal) [2]: 3.3 fold
